System: E. coli
Experiment: Colony formation of At1g74130-expressing E. coli on agar with increasing ampicillin
Type: cell-based, Escherichia coli
Conditions: protein expressed in E. coli JM109(DE3) from pET20b; solid agar media; susceptibility at higher concentrations
Protocol: Introduction and expression of At1g74130 was tested in E. coli, by subcloning the corresponding cDNA sequence into a T7 promoter-containing plasmid vector (pET20b) and JM109(DE3), a bacterial strain commonly used for expressing foreign proteins. Two alternative splice variants of At1g74130 were derived by RT-PCR cloning and tested along with the full version of At1g74130, also derived by RT-PCR cloning (see, e.g., FIGS. 3, 4, and 5). The alternative splice variants designated 6/7 and 7/8 are shown in FIGS. 1C and 1D, respectively. A similar procedure was used to express the At1g25290 and UBAC2 variants (see FIGS. 6, 7, and 8).
Alterations to protein translocation were investigated using the plasmid-borne multicopy gene, β-lactamase. The level of β-lactamase is a sensitive monitor of protein translocation and is translocated into the periplasm, where it detoxifies the antibiotic ampicillin, thereby conferring ampicillin-resistance to cells. Because the level of antibiotic resistance conferred also reflects the level of protein transport activity, the level of ampicillin resistance was determined for At1g74130 expressing cells and compared to that of control vector-containing cells on solid agar media containing increasing concentrations of ampicillin. […]

B1: At1g74130 M: 7/8 M-form splice variant of Arabidopsis At1g74130 rhomboid protein (protein, listed as Arabidopsis thaliana)
chain: MHAIFCRRVAVGCSSPQLTKLVTKQASQSRHSLSHLLPFDLSSRFVPPYVVSRSARVHGFFAGKLGNTNLKLKFGNVMESRAGFFSSELPSHGFESGGFTGFQKRGWKSWINGANGVVFGLVIANAAVFTMWRVLGKDNMWMVKNFMLSRYSFMTGRIHTLITSGFSHVGATHIILNMMGLCYFGARIARSFGPRYLLKLYFAGALGGSVFFLSSHALSVISLKGQRVVPKDQLKVPIGKLGANGPVYAITLLDMLLYPKVTTYFGLMLRVPVFAGIYSLGLNIIKMLEVCMMGKTTIP
With B1 the “ampicillin concentration at which expressing cells form colonies” value was 1.5 mg/mL.
